Results on 3 substances are retold here after patent US20230257746.

This series has as its target T1, ZNF410 (Homo sapiens) (UniProt Q86VK4).
T1 sequence: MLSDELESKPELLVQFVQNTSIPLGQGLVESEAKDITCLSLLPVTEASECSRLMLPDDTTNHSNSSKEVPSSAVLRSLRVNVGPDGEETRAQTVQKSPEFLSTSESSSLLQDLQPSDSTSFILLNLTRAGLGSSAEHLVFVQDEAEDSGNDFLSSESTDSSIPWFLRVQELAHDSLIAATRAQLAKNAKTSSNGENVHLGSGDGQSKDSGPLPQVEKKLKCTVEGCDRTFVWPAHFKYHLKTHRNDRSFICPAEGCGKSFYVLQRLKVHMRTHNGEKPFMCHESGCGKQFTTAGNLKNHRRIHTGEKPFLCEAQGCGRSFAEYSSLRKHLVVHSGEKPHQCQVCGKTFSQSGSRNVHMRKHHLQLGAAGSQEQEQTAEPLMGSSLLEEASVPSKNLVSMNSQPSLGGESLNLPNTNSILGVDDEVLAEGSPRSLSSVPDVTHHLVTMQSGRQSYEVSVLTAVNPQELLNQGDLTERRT
As to conditions: CUT&RUN with anti-HA in HUDEP-2 cells.

Turning to CHD4 -6 kb enhancer (11 ZNF410 motifs), the binding signal (fold enrichment over IgG) stood at 78.

As to CHD4 promoter (16 ZNF410 motifs), the binding signal (fold enrichment over IgG) is 48.

Substance NBPF19 intron site yielded a binding signal (fold enrichment over IgG) of 11.
